Where no end group is shown, it is not given here.
T1: PKC-ε (endogenous, IMR-32 lysate) (human, UniProt Q02156 1-737)
T1 construct: Band 1 and Band 2 (alternate splicing variants, not identified further) are kept under one molecule; the band is named in the assay field of each row; also called PKC-epsilon; PKC-ε Band 1
T1 sequence (looked up): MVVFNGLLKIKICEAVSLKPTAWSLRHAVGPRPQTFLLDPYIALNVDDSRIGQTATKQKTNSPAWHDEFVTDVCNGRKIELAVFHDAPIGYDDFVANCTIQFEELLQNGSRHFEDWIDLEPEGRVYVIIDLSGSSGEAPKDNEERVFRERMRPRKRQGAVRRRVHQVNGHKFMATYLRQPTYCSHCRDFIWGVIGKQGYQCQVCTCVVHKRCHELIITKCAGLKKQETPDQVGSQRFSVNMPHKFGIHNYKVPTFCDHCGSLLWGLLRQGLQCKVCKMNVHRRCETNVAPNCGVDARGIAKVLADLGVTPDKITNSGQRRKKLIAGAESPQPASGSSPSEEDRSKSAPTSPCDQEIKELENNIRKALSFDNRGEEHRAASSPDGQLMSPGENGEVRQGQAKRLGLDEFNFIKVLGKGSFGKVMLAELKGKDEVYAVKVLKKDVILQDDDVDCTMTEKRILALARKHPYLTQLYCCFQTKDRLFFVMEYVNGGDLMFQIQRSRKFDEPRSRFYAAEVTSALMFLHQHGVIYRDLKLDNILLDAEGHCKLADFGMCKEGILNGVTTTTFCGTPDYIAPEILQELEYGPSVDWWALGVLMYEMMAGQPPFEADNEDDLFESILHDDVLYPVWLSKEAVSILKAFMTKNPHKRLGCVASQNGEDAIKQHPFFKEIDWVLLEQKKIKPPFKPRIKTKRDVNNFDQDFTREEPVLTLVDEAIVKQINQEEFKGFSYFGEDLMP

B1: PRE 1 (peptide)
peptide: RRKKGGKDFVVKR
notes: also called peptide PRE 1; peptide recognition element 1

What was measured:
PKC-δ (purified isoform) [1] = biological target: T2, PKC-δ (purified isoform); assay: competitive ELISA, coated purified PKC-δ, vs anti-PKC δ (SC-213); PRE 200 µM
T2 construct: also called PKC-delta
Method: (§1) Greiner 96 well ELISA plates were coated with the appropriate PKC isoform diluted in PBSN (PBS with Calcium/Magnesium+0.05% Sodium azide w/w). 50 μL/well at 250 ng/mL was used. Control wells contained PBSN only. Plates were incubated overnight at 4° C.
(§2) The plates were washed 3 times with 200 μL of dH₂O per well, then 100 μL of blocking solution was added per well and the plate incubated for 1 h at 37° C. The washing steps with dH₂O were repeated and 50 μL of the appropriate PRE solution (PRE stock solution [20 mM in DMSO] diluted in PBSN) was added and the plate incubated for 1 h at room temperature.
(§3) 50 μL of 1:1000 dilution of Alkaline Phosphatase (AP) conjugated antibody (anti-rabbit for all except zeta, which was anti-goat) was then added and the plate incubated for 1 h at room temperature. Washing with dH₂O was then repeated. Finally, 100 μL of pNPP solution in pNPP buffer (2 mM MgCl₂, 100 mM Sodium bicarbonate in water, pH 9.8) was added to all wells and incubated for 8 minutes for α, βI, βII ε, and ζ, or for 15-20 mins for δ (until sufficient coloration is observed). The reaction was stopped by addition of Stop solution (2N NaOH) and the absorbance at 405 nm was read on a Galaxy Plate reader.

PKC-δ (purified isoform) [2] = biological target: T2, PKC-δ (purified isoform); assay: competitive ELISA, coated purified PKC-δ, vs anti-PKC δ (SC-213); PRE 50 µM
Method: as §1, §2, §3

PKC-δ (purified isoform) [3] = biological target: T2, PKC-δ (purified isoform); assay: competitive ELISA, coated purified PKC-δ, vs anti-PKC δ (SC-213); PRE 100 µM
Method: as §1, §2, §3

PKC-α (purified isoform) [4] = biological target: T3, PKC-α (purified isoform) (Homo sapiens (Human), UniProt P17252 2-672); assay: competitive ELISA, coated purified PKC-α, vs anti-PKC α (SC-208); PRE 50 µM
T3 construct: also called purified PKC-alpha; commercially purified PKC-alpha
Method: as §1, §2, §3

[5] = biological target: T4, PKC-βII (purified isoform) (Homo sapiens (Human), UniProt P05771 2-621); assay: competitive ELISA, coated purified PKC-βII, vs anti-PKC βII (SC-210); PRE 50 µM
T4 construct: also called PKC-beta II; PKC beta 2
Method: as §1, §2, §3

PKC-α (purified isoform) [6] = biological target: T3, PKC-α (purified isoform); assay: competitive ELISA, coated purified PKC-α, vs anti-PKC α (SC-208); PRE 200 µM
Method: as §1, §2, §3

[7] = biological target: T4, PKC-βII (purified isoform); assay: competitive ELISA, coated purified PKC-βII, vs anti-PKC βII (SC-210); PRE 200 µM
Method: as §1, §2, §3

[8] = biological target: T4, PKC-βII (purified isoform); assay: competitive ELISA, coated purified PKC-βII, vs anti-PKC βII (SC-210); PRE 100 µM
Method: as §1, §2, §3

PKC-α (purified isoform) [9] = biological target: T3, PKC-α (purified isoform); assay: competitive ELISA, coated purified PKC-α, vs anti-PKC α (SC-208); PRE 100 µM
Method: as §1, §2, §3

[10] = biological target: T5, PKC-βI (purified isoform) (Homo sapiens (Human), UniProt P05771 2-671); assay: competitive ELISA, coated purified PKC-βI, vs anti-PKC βI (SC-209); PRE 100 µM
T5 construct: also called PKC-beta I; PKC beta 1
Method: as §1, §2, §3

[11] = biological target: T5, PKC-βI (purified isoform); assay: competitive ELISA, coated purified PKC-βI, vs anti-PKC βI (SC-209); PRE 200 µM
Method: as §1, §2, §3

[12] = biological target: T5, PKC-βI (purified isoform); assay: competitive ELISA, coated purified PKC-βI, vs anti-PKC βI (SC-209); PRE 50 µM
Method: as §1, §2, §3

[13] = biological target: T1, PKC-ε (endogenous, IMR-32 lysate); assay: WB competition Protocol B, IMR-32 extract, vs anti-PKC-ε Ab; PKC-ε Band 2; 50 µg peptide
Method: (§4) The ability of the peptides PRE 2 and PRE 3 (see Table 4) to interfere with the binding of a PKC-α-specific polyclonal antibody (Santa Cruz Biotechnology, Inc.) to PKC-α was determined using a modified version of the protocol outlined above in which the test peptide was added directly to the cell extract prior to electrophoresis at a concentration of either 5× or 15× the concentration of the protein applied to each well of the gel for the Western blots (20 μg).
(§5) Peptides PRE 2, PRE 3 and PRE 4 (see Table 4) were tested for their ability to interfere with the binding of isoform-specific polyclonal antibodies (Santa Cruz Biotechnology, Inc.) to […] using the general protocol described in Example 3. Two bands, representing alternate splicing variants of PKC-ε, were identified on the Western blot using this anti-PKC-ε antibody.

[14] = biological target: T1, PKC-ε (endogenous, IMR-32 lysate); assay: WB competition Protocol B, IMR-32 extract, vs anti-PKC-ε Ab; PKC-ε Band 1; 100 µg peptide
Method: as §4, §5

[15] = biological target: T1, PKC-ε (endogenous, IMR-32 lysate); assay: WB competition Protocol B, IMR-32 extract, vs anti-PKC-ε Ab; PKC-ε Band 1; 50 µg peptide
Method: as §4, §5

[16] = biological target: T1, PKC-ε (endogenous, IMR-32 lysate); assay: WB competition Protocol B, IMR-32 extract, vs anti-PKC-ε Ab; PKC-ε Band 1; 20 µg peptide
Method: as §4, §5

[17] = biological target: T1, PKC-ε (endogenous, IMR-32 lysate); assay: WB competition Protocol B, IMR-32 extract, vs anti-PKC-ε Ab; PKC-ε Band 2; 20 µg peptide
Method: as §4, §5

[18] = biological target: T1, PKC-ε (endogenous, IMR-32 lysate); assay: WB competition Protocol B, IMR-32 extract, vs anti-PKC-ε Ab; PKC-ε Band 2; 100 µg peptide
Method: as §4, §5

T4 sequence (P05771 other isoform, or with tags, fused parts or gaps limits assumed): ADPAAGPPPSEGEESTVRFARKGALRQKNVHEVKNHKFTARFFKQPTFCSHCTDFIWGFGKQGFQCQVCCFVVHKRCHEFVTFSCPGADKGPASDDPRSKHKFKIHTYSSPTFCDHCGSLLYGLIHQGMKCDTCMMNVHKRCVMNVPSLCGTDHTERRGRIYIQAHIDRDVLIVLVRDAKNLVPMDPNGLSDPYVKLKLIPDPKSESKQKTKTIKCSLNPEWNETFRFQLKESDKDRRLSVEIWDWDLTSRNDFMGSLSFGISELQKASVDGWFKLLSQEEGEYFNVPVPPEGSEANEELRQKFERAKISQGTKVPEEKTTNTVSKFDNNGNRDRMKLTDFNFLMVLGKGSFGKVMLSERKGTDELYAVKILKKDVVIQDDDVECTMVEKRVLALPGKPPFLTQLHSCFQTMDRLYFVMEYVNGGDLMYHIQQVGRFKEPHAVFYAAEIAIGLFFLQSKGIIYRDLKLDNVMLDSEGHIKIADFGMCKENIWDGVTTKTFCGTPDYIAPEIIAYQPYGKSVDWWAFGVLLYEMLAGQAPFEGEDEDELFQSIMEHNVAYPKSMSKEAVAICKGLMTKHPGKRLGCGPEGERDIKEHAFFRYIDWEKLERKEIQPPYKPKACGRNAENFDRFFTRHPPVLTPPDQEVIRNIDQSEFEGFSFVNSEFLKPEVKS
T2 sequence (Q05655 whole entry, stated change not applied, canonical isoform): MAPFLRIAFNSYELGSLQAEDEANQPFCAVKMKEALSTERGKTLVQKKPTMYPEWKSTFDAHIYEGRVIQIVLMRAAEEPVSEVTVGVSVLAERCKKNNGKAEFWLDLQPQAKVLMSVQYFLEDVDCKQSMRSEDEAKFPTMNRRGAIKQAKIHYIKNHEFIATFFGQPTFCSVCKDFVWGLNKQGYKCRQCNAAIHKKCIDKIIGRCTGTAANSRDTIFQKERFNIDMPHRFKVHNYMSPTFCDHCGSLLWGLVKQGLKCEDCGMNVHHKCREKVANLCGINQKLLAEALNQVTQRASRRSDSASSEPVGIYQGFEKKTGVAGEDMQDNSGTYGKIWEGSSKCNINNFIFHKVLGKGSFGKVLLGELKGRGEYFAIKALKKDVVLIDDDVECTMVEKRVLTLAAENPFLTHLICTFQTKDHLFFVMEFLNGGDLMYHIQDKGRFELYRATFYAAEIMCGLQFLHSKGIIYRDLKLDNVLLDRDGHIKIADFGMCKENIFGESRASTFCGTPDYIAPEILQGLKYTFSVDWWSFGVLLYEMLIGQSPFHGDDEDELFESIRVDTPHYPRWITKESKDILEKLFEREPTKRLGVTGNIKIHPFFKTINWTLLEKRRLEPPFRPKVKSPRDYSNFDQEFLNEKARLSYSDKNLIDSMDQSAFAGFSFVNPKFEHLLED
T5 sequence (P05771 2-671 limits assumed): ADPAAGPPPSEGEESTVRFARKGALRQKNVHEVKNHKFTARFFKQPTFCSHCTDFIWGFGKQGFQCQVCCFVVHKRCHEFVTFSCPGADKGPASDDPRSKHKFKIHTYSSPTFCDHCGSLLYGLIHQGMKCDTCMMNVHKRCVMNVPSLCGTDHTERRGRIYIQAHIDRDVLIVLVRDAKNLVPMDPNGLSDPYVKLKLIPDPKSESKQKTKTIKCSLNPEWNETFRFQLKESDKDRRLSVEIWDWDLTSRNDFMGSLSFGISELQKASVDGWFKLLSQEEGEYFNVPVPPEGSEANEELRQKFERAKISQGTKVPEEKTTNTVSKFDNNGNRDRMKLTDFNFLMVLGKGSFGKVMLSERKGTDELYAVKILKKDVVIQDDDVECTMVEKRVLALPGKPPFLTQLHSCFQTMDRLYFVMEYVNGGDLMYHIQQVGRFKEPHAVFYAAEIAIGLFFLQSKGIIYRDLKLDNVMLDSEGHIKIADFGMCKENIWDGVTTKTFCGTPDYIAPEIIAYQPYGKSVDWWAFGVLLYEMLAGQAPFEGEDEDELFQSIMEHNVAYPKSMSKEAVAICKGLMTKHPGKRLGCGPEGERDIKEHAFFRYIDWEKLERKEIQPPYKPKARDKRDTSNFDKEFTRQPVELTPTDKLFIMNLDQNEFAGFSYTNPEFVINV

Binder | relative binding capacity (100-%n, DMSO subtracted) (PKC-δ (purified isoform) [1]) [%] | relative binding capacity (100-%n, DMSO subtracted) (PKC-δ (purified isoform) [2]) [%] | relative binding capacity (100-%n, DMSO subtracted) (PKC-δ (purified isoform) [3]) [%] | relative binding capacity (100-%n, DMSO subtracted) (PKC-α (purified isoform) [4]) [%] | relative binding capacity (100-%n, DMSO subtracted) [5] [%] | relative binding capacity (100-%n, DMSO subtracted) (PKC-α (purified isoform) [6]) [%] | relative binding capacity (100-%n, DMSO subtracted) [7] [%] | relative binding capacity (100-%n, DMSO subtracted) [8] [%] | relative binding capacity (100-%n, DMSO subtracted) (PKC-α (purified isoform) [9]) [%] | relative binding capacity (100-%n, DMSO subtracted) [10] [%] | relative binding capacity (100-%n, DMSO subtracted) [11] [%] | relative binding capacity (100-%n, DMSO subtracted) [12] [%] | other results
ILEDKGGDAQNLIGISI (also called peptide PRE 8) [PRE 8] | 6.68 | 6.96 | 3.38 | 0 | 1.11 | 0 | 0 | 0 | 0 |  |  |  | 
Ac-ISIGILQNADK-NH2 (also called peptide PRE 7) [PRE 7] | 0 | 3.06 | 0 | 0 | 5.42 | 6.59 | 2.59 | 11.1 | 6.72 |  |  |  | 
B1 | 49.4 | 35.7 | 45.2 | 0.69 | 0 | 2.1 | 0 | 0 | 0 | 13.9 | 13.4 | 19.8 | 
Ac-KDANQLIGISI-NH2 (also called peptide PRE 6) [PRE 6] | 14 | 17.5 | 13.2 | 0 | 0.08 | 0 | 0 | 0 | 0 | 7.93 | 6.14 | 0 | 
Ac-RDAQNLIGISI-NH2 (also called peptide PRE 11) [PRE 11] | 18.7 | 34.1 | 21.5 | 0 | 7.14 | 13.3 | 6.4 | 11 | 5.96 | 14.2 | 12.5 | 9.86 | 
KDAQNLIGISL-NH2 (also called peptide PRE 2) [PRE 2] |  |  |  |  |  |  |  |  |  |  |  |  | Band Intensity [13]: 0; Inhibition (%) [13]: 100%; Relative Intensity (%) [13]: 0%; Band Intensity [14]: 0; Inhibition (%) [14]: 100%; Relative Intensity (%) [14]: 0%; Band Intensity [15]: 0; Inhibition (%) [15]: 100%; Relative Intensity (%) [15]: 0%; Band Intensity [16]: 323; Inhibition (%) [16]: 23.4%; Relative Intensity (%) [16]: 76.6%; Band Intensity [17]: 160; Inhibition (%) [17]: 38.6%; Relative Intensity (%) [17]: 61.4%; Band Intensity [18]: 0; Inhibition (%) [18]: 100%; Relative Intensity (%) [18]: 0%
Ac-ISIGILNQADK-NH2 (also called peptide PRE 10) [PRE 10] | 9.47 | 0 | 0 | 0 | 0 | 0 | 0 | 0 | 0 | 4.35 | 0 | 3.77 | 

From patent US20110039770A1 (PHARMAGAP, published 2011)
